Results reported in the supplement of paper PMC12455559.
± gives the standard deviation of the averaged measurements.

Legend:
[1] = PET hydrolysis, aromatic products released after 48 h (umol product/mg enzyme); higher = more PET depolymerization activity
Outline: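 Tagless, SUMO-cleaved candidate enzymes were purified on nickel beads, and 5 μg (50 μL) was added to 3.5 mg amorphous PET film or crystalline PET powder in 450 μL buffer. Buffers were 50 mM NaCitrate (pH 4.5, 5.5), 50 mM NaPhosphate (pH 6.5, 7.5) or glycine (pH 8.5). Sealed plates were incubated 48 h at 40 or 60 °C without shaking. PET hydrolysis activity is the aromatic product in the supernatant, read by absorbance at 260 and 280 nm against buffer blanks and expressed per mg enzyme.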

[2] = purified protein yield per well (BCA); higher = higher soluble expression
Outline: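 Candidate enzymes were made in 2 mL autoinduction cultures of E. coli C41(DE3) with 100 µg/mL kanamycin, at 37 °C for 2 h and then 18 °C for 40 h, and purified with Ni-charged magnetic beads and SUMO protease cleavage. The Pierce Rapid Gold BCA kit gave purified protein yield per well. Values lower than 25 ug (0.1 mg/mL) are below the detection threshold.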

[3] = melting temperature (DSF); higher = more thermostable
Outline: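 After expression in E. coli C41(DE3), the candidate enzymes were bound to nickel beads and released with SUMO protease. Their melting temperature was found by differential scanning fluorimetry with Sypro Orange on a Bio-Rad CFX96. Each sealed PCR plate well held 45 μL enzyme (0 to 0.3 mg/mL) plus 5 μL 5X dye, and fluorescence was read for 250 cycles from 25 °C at 0.3 °C per cycle (ramp 0.3 °C/s).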

[4] = substrate: aFilm, 40 °C, pH 4.5
[5] = substrate: aFilm, 40 °C, pH 5.5
[6] = substrate: aFilm, 40 °C, pH 6.5
[7] = substrate: aFilm, 40 °C, pH 7.5
[8] = substrate: aFilm, 60 °C, pH 4.5
[9] = substrate: aFilm, 60 °C, pH 5.5
[10] = substrate: aFilm, 60 °C, pH 6.5
[11] = substrate: aFilm, 60 °C, pH 7.5
[12] = substrate: cryPow, 40 °C, pH 4.5
[13] = substrate: cryPow, 40 °C, pH 5.5
[14] = substrate: cryPow, 40 °C, pH 6.5
[15] = substrate: cryPow, 40 °C, pH 7.5
[16] = substrate: cryPow, 60 °C, pH 4.5
[17] = substrate: cryPow, 60 °C, pH 5.5
[18] = substrate: cryPow, 60 °C, pH 6.5
[19] = substrate: cryPow, 60 °C, pH 7.5
[20] = substrate: cryPow, 40 °C, pH 8.5
[21] = substrate: cryPow, 60 °C, pH 8.5

ADNPYERGPDPTRTSVATERGPFANTSVSVPTGYGFNGGRIYYPTDTSQGTFGAIAISPGYTALFSAELAWMGPWLASHGFVVIGIETNSRNDFDTARGTQLLAALDYLTQQSPVRDRVDASRLAVAGHSMGGGGALSAATRRPALKAAVGITPFSPSSNLANDRVPTMVISGQADTVVTPSYALDLYNSLPSTTESVYVEVAGGDHGFMVGRSNPVMIRTMLPFLKIFVDNDARYSQFLCPLMDNSGVVTYRSTCPLINTPTTPPPTSPPPTSPPPTSPPPTTPPPGSATQIVGVQSNRCIDVPNSSRNNGTRVQLYDCHGQTNQAWTYTANKQLQVYGNMCLDAAGTGNGAAVQIYSCHGGANQQWNVNSNGTISGVQSGRCLDVWSTSNGAQVQLYDCHGGTNQRFNLVAR [TEP082]
PET hydrolysis [1, 4]: < 3
PET hydrolysis [1, 5]: < 3
PET hydrolysis [1, 6]: < 3
PET hydrolysis [1, 7]: < 3
PET hydrolysis [1, 8]: < 3
PET hydrolysis [1, 9]: < 3
PET hydrolysis [1, 10]: < 3
PET hydrolysis [1, 11]: < 3
PET hydrolysis [1, 12]: 6.5 ± 0.71
PET hydrolysis [1, 13]: 15 ± 1.4
PET hydrolysis [1, 14]: 39.5 ± 2.1
PET hydrolysis [1, 15]: 34 ± 1.4
PET hydrolysis [1, 16]: < 3
PET hydrolysis [1, 17]: 2 ± 2.8
PET hydrolysis [1, 18]: 6 ± 1.4
PET hydrolysis [1, 19]: 3.5 ± 0.71
purified protein yield per well [2]: 282 µg
melting temperature [3]: 63.1 C

ADNPYERGPNPTESLIEAARGPFATSQTTVSSLSVTGFGGGVIYYPTDTSQGTFGGIAISPGYTAAWSSLDWLGPRLASHGFVVIGIETNTRLDQPASRGDQLLAALDYLTQRSSVRSRVDATRLAVAGHSMGGGGSLEAAKDRTSLKAAIPLAPWNTDKTWPEVRTPTLIIGGESDTVAPVSSHSIPFYTSLTSAREKAYLELDNASHFFPQTSNTTMAKYMISWMKRYIDNDTRYEQFLCPGPSTGLLSGISDWRQTCPGS [TEP073]
PET hydrolysis [1, 12]: < 3
PET hydrolysis [1, 13]: < 3
PET hydrolysis [1, 14]: < 3
PET hydrolysis [1, 15]: < 3
PET hydrolysis [1, 16]: < 3
PET hydrolysis [1, 17]: < 3
PET hydrolysis [1, 18]: < 3
PET hydrolysis [1, 19]: < 3
purified protein yield per well [2]: 81.6 µg
melting temperature [3]: 46.9 C

ADNPYERGPNPTQASIAASRGTFATAEVSVGGGNGFAAAKIYYPTDTSQGTFGAIAIVPGYTATWAAEGAWMGPWLASFGFVVIGIDTLSRNDFDTARGTQLLAALDYLTQRSSVRSRVDASRLAVMGHSMGGGGAISAALRRPSLKAAVGLAPFSPSQGTSGMRVPSMLLAGQRDGTVTPSSVRNLYNAIPATTEKAYLELTGAGHGFPTSANSVMMRKVIPWLKIFVDQDTRYQQFLCPLVDWTGITSYQSSCPLIPGGSTGTTYNLVNSSGKCADVNAASQVNGAALLLWTCHTNPNQRWTETSAKELRVYDNPKCMDAGAAQQGTRVTINSCSGGGSQKWTVNANGTVTNDLSGRCLGAAGGATTDNTPLVVASCDGSPGQQWTKQS [TEP093]
PET hydrolysis [1, 12]: 4
PET hydrolysis [1, 13]: 12
PET hydrolysis [1, 14]: 31
PET hydrolysis [1, 15]: 28
PET hydrolysis [1, 16]: < 3
PET hydrolysis [1, 17]: 4
PET hydrolysis [1, 18]: 7
PET hydrolysis [1, 19]: 7
purified protein yield per well [2]: 166 µg
melting temperature [3]: 69.7 C

ADNPYQRGPAPTAASIAADRGPFATAQVTVPRGNGFGGGVIYYPTDTSQGTFGAIAIAPGFGTAWSYYAWQGPRLASFGFVVIGIETNTLNDYADARAAQLLAALDYLVNSSSVRDRVDRNRLAVGGHSMGGGGAILAANQRPSLLTAVGQAPYVPDGSLSGIKSPTIIFAGQADGTVTPQYAQNAYNTIPGSVERAYVEIANEGHGFPAGGGGGNSGAFARTMMVWLKLFVDKDTRYAPFLCPSLTNANGISKYMASCPLDPPGGGPTASPTSTPTSTPTSTPTSTPTGTPPAGGTSALRGVASGRCLDVNGASQANGATVLIWDCNGQNNQKWTSTSAGELRVYGNKCLDVNGGGTADGSAVIIWDCNGQSNQKWRLNSDGSITAVGANKCLDVSGNGTANGTRVQIWSCTGGTNQKWTRV [ESM010]
PET hydrolysis [1, 12]: < 3
PET hydrolysis [1, 13]: 3
PET hydrolysis [1, 14]: 4
PET hydrolysis [1, 15]: 5
PET hydrolysis [1, 16]: < 3
PET hydrolysis [1, 17]: < 3
PET hydrolysis [1, 18]: < 3
PET hydrolysis [1, 19]: < 3
purified protein yield per well [2]: 79.7 µg
melting temperature [3]: 64.6 C

ADNPYQRGPAPTAASISADTGPFATATTVAEGTGFGGATIYYPTDTSQGTFGAIGMLPGWTAPWSAYAWLGPRLASQGFVVIGVDTNDPNDYPAARATQVLAALDHLTESSAVRDRVDPDRLAVAGHSMGGGGSLEAALSRPSLKAVYGIEPYDDITSDFSNLTVPTFIQAGQDDTLVTPSYLESLYATLPSTSEHAYLEIAGADHMFVGSPNVILARTLISWMKIFVDDDTRYTQFLCPLSDDSGVSQYRNTCPLTPGGSTGSPTATAPSPPASSSNPPGTPSSPAPTDGTCRVTYTTNAWDSGLTASVTIANTGTTASTGWSLAFTLPDGQTITSGWNATYSPSSGQVTATGVSHNATIPAGESINIGFQATHTGDTGAPTTFALNGQTCTIT [DP021]
PET hydrolysis [1, 13]: 5
PET hydrolysis [1, 14]: < 3
PET hydrolysis [1, 15]: < 3
PET hydrolysis [1, 20]: < 3
PET hydrolysis [1, 17]: < 3
PET hydrolysis [1, 18]: < 3
PET hydrolysis [1, 19]: < 3
PET hydrolysis [1, 21]: < 3
purified protein yield per well [2]: 170 µg
melting temperature [3]: 47.5 C

ADNPYQRGPAPTNTSIEATRGTYAVSTKTISALSARGFGGGTIYYPTSTADGTFGVVAISPGYTASQSTIAWLGPRLASFGFVVVTIDTTTRYDQPTSRGSQLLAALDQAIGDSTVGPRIDATRQAVVGHSMGGGGTLEAAKTRRSLEAAVPLTGWNLDKTWPEVEAATLVIGAQNDTVAPTTSHSIPFYNSLSGAERKAYLELRGASHFAPVTSNTTIAKHTLSWLKRYVDDDTRYEQFISPGPSTAIGSPVSDYRVN [DP022]
PET hydrolysis [1, 5]: < 3
PET hydrolysis [1, 6]: < 3
PET hydrolysis [1, 7]: < 3
PET hydrolysis ([1]; substrate: aFilm, 40 °C, pH 8.5): < 3
PET hydrolysis [1, 9]: < 3
PET hydrolysis [1, 10]: < 3
PET hydrolysis [1, 11]: < 3
PET hydrolysis ([1]; substrate: aFilm, 60 °C, pH 8.5): < 3
PET hydrolysis [1, 13]: < 3
PET hydrolysis [1, 14]: < 3
PET hydrolysis [1, 15]: < 3
PET hydrolysis [1, 20]: < 3
PET hydrolysis [1, 17]: < 3
PET hydrolysis [1, 18]: < 3
PET hydrolysis [1, 19]: < 3
PET hydrolysis [1, 21]: < 3
purified protein yield per well [2]: 215 µg
melting temperature [3]: 35.8 C

ADNPYQRGPDPSRTSVATETGPFANASVSVPTGYGFNGGRIYYPTDSSQGTFGAIAISPGYTALFSAELAWMGPWLASHGFVVIGIETNSRNDFDTARGTQLLAALDYLTQQSPVRDRVDPNRLAVAGHSMGGGGALSAAVRRSSLKAAVGIAPYSPSSNLANDRVPTMVFSGQADTVVTPSYAIGLYNSLPTTTESVYLEVAGADHGFMVGRSNPVMIRTMLPFVKMFIDNDTRYSQFLCPLLDSSGVVTYRSTCPLLPTTPTTPPVNPTTPPVNPTVSPTGAPGSASEIVGVQSGRCVDVPNASRTNGTRVQLYDCNRQSQQSWTYTSGRQLRVYGDMCLDAAGSGNGAAVQIYACHSQTNQQWNVNSNGTISGVQSGRCLDVWSTANGAQVQLYDCHGQTNQRFNVMPLAR [TEP092]
PET hydrolysis [1, 12]: 5
PET hydrolysis [1, 13]: 10
PET hydrolysis [1, 14]: 8
PET hydrolysis [1, 15]: 3
PET hydrolysis [1, 16]: < 3
PET hydrolysis [1, 17]: < 3
PET hydrolysis [1, 18]: < 3
PET hydrolysis [1, 19]: < 3
purified protein yield per well [2]: 154 µg
melting temperature [3]: 60.4 C

ADNPYQRGPDPTAASIAAVTGPFATASVTVPRGNGFGGGVIYYPTDTSQGTFGGIAISPGLNGTWPGIAWLGPRLASQGFVVFGIETNNLNDSPTSRGTQLLAALDYLTGSSSVRTRVDAGRLAVAGHSMGGGGALDAALRRPSLRATIGNAPHLPSGSLANDRVPTLIYAMQNDTLVPPSRLTSLYNTVPATTERGYLEITGAGHNYIGQPSTILARTMIPWLKIFVDDDARYSQFLCPLTDRSGISQYQSSCPLITTSPTTGPTAQPTTAAPTTTPTTPPVGGPCEATHRTVNSWSGGYQGEVTVRAGSAAINGWTVSWTLGSGQTINQVWGGALTASGTAATVRNETWNGPVAAGASTTFGYIATGNAPTQPLACSAR [ESM060]
PET hydrolysis [1, 4]: < 3
PET hydrolysis [1, 5]: < 3
PET hydrolysis [1, 6]: 1.5 ± 2.1
PET hydrolysis [1, 7]: 8 ± 1.4
PET hydrolysis [1, 8]: < 3
PET hydrolysis [1, 9]: < 3
PET hydrolysis [1, 10]: < 3
PET hydrolysis [1, 11]: < 3
PET hydrolysis [1, 12]: < 3
PET hydrolysis [1, 13]: 11.5 ± 2.1
PET hydrolysis [1, 14]: 24.5 ± 2.1
PET hydrolysis [1, 15]: 38 ± 1.4
PET hydrolysis [1, 16]: < 3
PET hydrolysis [1, 17]: < 3
PET hydrolysis [1, 18]: 5.5 ± 0.71
PET hydrolysis [1, 19]: 12.5 ± 0.71
purified protein yield per well [2]: 279 µg
melting temperature [3]: 58.6 C

ADNPYQRGPDPTAASVTAVNGPFANTSVSVPTGYGFNGGRIYYPTDTSQGTFGAIAISPGYTALFSAELAWMGPWLASHGFVVIGIETNSRNDFDTARGTQLLAALDYLTQQSPVRDRVDPNRLAVAGHSMGGGGALSAATRRPSLKAVVGIAPYSPSSNLANDRVPTMIFAGQADTVVTPSYATGLYNSLPTTTESTYLEVAGADHGFMVGRSNPVLVRTMLPFVKMFLDNDARYSQFLCPLLDNSGVVTYRSTCPLLPSTPTSPTPTTTPTSTPTPTPTVTPTTPPGSASQIVGTQSGRCVDVPNASRTNGTRVHLWDCNRQANQAWTYTANKQLQVYGTMCLDAAGTGNGAAVQIYSCHGQTNQQWNVNSNGTISSVQSGRCLDVWSTANGAQVQLYDCHGQTNQQFRLTALN [ESM130]
PET hydrolysis [1, 12]: < 3
PET hydrolysis [1, 13]: 6
PET hydrolysis [1, 14]: 3
PET hydrolysis [1, 15]: < 3
PET hydrolysis [1, 16]: < 3
PET hydrolysis [1, 17]: < 3
PET hydrolysis [1, 18]: < 3
PET hydrolysis [1, 19]: < 3
purified protein yield per well [2]: 138 µg
melting temperature [3]: 58 C
